According to US20240360203A1:

Assays:
Experiment in all cases: DELFIA on captured biotin-peptide
Design in all cases: unit not given beside the values
[1] = biological target: SARS-CoV-2 spike S2 peptide 1133-1147, biotinylated (SARS-CoV-2)
[2] = biological target: SARS-CoV-2 spike S2 peptide 1137-1151, biotinylated (SARS-CoV-2)
[3] = biological target: SARS-CoV-2 spike S2 peptide 1141-1155, biotinylated (SARS-CoV-2)
[4] = biological target: SARS-CoV-2 spike S2 peptide 1143-1162, biotinylated (SARS-CoV-2)
[5] = biological target: SARS-CoV-2 spike S2 peptide 1145-1159, biotinylated (SARS-CoV-2)
[6] = biological target: SARS-CoV-2 spike S2 peptide 1149-1163, biotinylated (SARS-CoV-2)
[7] = biological target: SARS-CoV-2 spike S2 peptide 1149-1167, biotinylated (SARS-CoV-2)
[8] = biological target: SARS-CoV-2 spike S2 peptide 1153-1167, biotinylated (SARS-CoV-2)
[9] = biological target: SARS-CoV-2 spike S2 peptide 1157-1171, biotinylated (SARS-CoV-2)

With “isotype control (palivizumab variable regions expressed as human IgG1 with LS mutation in the Fc region) (antibody)” the AUC [1] was 4060, the AUC [2] was 19300 and the AUC [3] was 13300. It also gave an AUC [4] of 3110, an AUC [5] of 1520 and an AUC [6] of 20500. For the same substance, the AUC [7] was 2600, the AUC [8] was 8120 and the AUC [9] was 3110.
